Experimental data reported in patent US20050054043A1 (UNIVERSITY OF VERMONT, published 2005).

Key:
[1] = target: T1, transferrin receptor on HeLa S3 cells (human, UniProt P02786 1-760); assay: competition of unlabeled transferrin against radioiodinated Boehringer Mannheim hTf on HeLa S3 cells, LIGAND fit (apparent Kd')
T1 construct: whole, on cells; also called human receptors; cell-surface transferrin receptors
Protocol: Cells were routinely grown in DMEM-F-12 containing 10% newborn calf serum. Prior to beginning a binding experiment, the cells were harvested with Versene, and taken up in Joklik's minimum essential medium-20 mM Hepes-2% BSA (JMEM-BSA). Endogenous bovine transferrin was removed from the HeLa cells by incubation for 10 min at 37° C. at a 5-fold dilution with JMEM-BSA. After centrifugation of the cells and removal of the supernatant, this procedure was repeated twice. […] After 30 min of incubation at 37° C. with gentle shaking, portions of the cell suspension (3×100 μL) were pipetted into microfuge tubes containing 0.9 mL of ice-cold JMEM-BSA over 300 μL of dibutyl phthalate and centrifuged for 2 min in a Beckman microfuge. The aqueous and organic phases were aspirated to just above the cell pellet. The bottom of the tube containing the cell pellet was released by a hot wire into a plastic tube (12×75 mm) and assayed for radioactivity.

[2] = target: T1, transferrin receptor on HeLa S3 cells; assay: direct equilibrium binding of radioiodinated diferric transferrin to HeLa S3 cells, LIGAND fit (apparent Kd')
Protocol: After 30 min of incubation at 37° C. with gentle shaking, portions of the cell suspension (3×100 μL) were pipetted into microfuge tubes containing 0.9 mL of ice-cold JMEM-BSA over 300 μL of dibutyl phthalate and centrifuged for 2 min in a Beckman microfuge. The aqueous and organic phases were aspirated to just above the cell pellet. The bottom of the tube containing the cell pellet was released by a hot wire into a plastic tube (12×75 mm) and assayed for radioactivity.

T1 sequence (P02786 whole entry): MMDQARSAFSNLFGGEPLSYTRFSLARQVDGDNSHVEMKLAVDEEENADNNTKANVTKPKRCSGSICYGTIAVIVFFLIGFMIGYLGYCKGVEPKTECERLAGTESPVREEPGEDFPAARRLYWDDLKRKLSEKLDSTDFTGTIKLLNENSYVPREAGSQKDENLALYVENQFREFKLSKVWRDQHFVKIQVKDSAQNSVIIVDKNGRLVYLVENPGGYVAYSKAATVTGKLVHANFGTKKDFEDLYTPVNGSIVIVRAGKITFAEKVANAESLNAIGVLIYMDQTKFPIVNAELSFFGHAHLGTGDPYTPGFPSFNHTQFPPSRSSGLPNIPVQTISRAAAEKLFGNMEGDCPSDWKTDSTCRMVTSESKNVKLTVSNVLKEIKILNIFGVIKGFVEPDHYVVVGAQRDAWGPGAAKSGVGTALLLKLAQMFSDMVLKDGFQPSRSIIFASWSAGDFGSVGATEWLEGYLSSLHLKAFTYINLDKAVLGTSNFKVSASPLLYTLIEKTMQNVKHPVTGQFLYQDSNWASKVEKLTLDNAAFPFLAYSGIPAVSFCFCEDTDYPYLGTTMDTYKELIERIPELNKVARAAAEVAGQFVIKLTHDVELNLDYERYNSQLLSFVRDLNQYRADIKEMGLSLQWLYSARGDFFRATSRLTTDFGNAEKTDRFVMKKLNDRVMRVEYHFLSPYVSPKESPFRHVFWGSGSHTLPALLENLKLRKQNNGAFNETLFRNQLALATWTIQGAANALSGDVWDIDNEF

Kd [1]: 19.8 nM
Kd [2]: 23.4 nM
B1: hTf N413D/N611D mutant (recombinant nonglycosylated human serum transferrin), diferric (ligand)
chain: VPDKTVRWCAVSEHEATKCQSFRDHMKSVIPSDGPSVACVKKASYLDCIRAIAANEADAVTLDAGLVYDAYLAPNNLKPVVAEFYGSKEDPQTFYYAVAVVKKDSGFQMNQLRGKKSCHTGLGRSAGWNIPIGLLYCDLPEPRKPLEKAVANFFSGSCAPCADGTDFPQLCQLCPGCGCSTLNQYFGYSGAFKCLKDGAGDVAFVKHSTIFENLANKADRDQYELLCLDNTRKPVDEYKDCHLAQVPSHTVVARSMGGKEDLIWELLNQAQEHFGKDKSKEFQLFSSPHGKDLLFKDSAHGFLKVPPRMDAKMYLGYEYVTAIRNLREGTCPEAPTDECKPVKWCALSHHERLKCDEWSVNSVGKIECVSAETTEDCIAKIMNGEADAMSLDGGFVYIAGKCGLVPVLAENYDKSDNCEDTPEAGYFAVAVVKKSASDLTWDNLKGKKSCHTAVGRTAGWNIPMGLLYNKINHCRFDEFFSEGCAPGSKKDSSLCKLCMGSGLNLCEPNNKEGYYGYTGAFRCLVEKGDVAFVKHQTVPQNTGGKNPDPWAKNLNEKDYELLCLDGTRKPVEEYANCHLARAPNHAVVTRKDKEACVHKILRQQQHLFGSDVTDCSGNFCLFRSETKDLLFRDDTVCLAKLHDRNTYEKYLGEEYVKAVGNLRKCSTSSLLEACTFRRP
modifications: non-glycosylated; diferric (iron-saturated); radioiodinated in Table 2 (A), unlabeled in (B)
notes: Full-length human transferrin with both N-glycosylation sites changed to Asp, expressed in BHK cells; Positions use mature-protein numbering; also called hTf(N/D)
